Test results reported in US20180164286A1.

Sequence of LB-4E-BP1 - residues 29 to end (Q13541 29-118): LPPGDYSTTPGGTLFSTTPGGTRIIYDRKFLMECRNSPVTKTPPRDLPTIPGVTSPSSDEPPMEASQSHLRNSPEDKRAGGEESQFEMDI

The substances below were run against Small BiT (SB)-eIF4E, full-length (assay: cell-based or functional assay).
Sequence of Small BiT (SB)-eIF4E, full-length (chain, as listed by the source limits assumed): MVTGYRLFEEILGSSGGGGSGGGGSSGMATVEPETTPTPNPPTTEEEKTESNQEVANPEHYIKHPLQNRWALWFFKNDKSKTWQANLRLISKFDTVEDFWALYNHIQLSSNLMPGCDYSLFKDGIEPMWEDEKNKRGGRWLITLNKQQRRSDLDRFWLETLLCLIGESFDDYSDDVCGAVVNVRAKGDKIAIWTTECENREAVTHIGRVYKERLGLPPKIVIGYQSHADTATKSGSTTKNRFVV
With “4E-BP1 with C-terminal LB at residue 85 (from UniProt Q13541 1-85)” the fold-change of split-luciferase luminescence, rapamycin (50 nM, 1 h) over vehicle; HEK293 cells was 0.89 fold.
“LB-4E-BP1 - residues 29 to end (from UniProt Q13541 29-118)” gave a fold-change of split-luciferase luminescence, rapamycin (50 nM, 1 h) over vehicle; HEK293 cells of 0.89 fold.
“4E-BP1 with C-terminal LB at residue 95 (from UniProt Q13541 1-95)” showed a fold-change of split-luciferase luminescence, rapamycin (50 nM, 1 h) over vehicle; HEK293 cells of 0.98 fold.
“Full-length 4E-BP1 with C-terminal LB (from UniProt Q13541 2-118)” gave a fold-change of split-luciferase luminescence, rapamycin (50 nM, 1 h) over vehicle; HEK293 cells of 1.18 fold.
